Assays:
Details in all cases: both partners purified
[1] = molecular target: PCV2-Cap peptide aa 74–88 (Porcine circovirus 2, PCV2b strain SH); assay: ELISA; synthetic 15-mer peptides coated (1 µg/well); mAb-1E7 or mAb-3G4 added; detection with goat anti-mouse IgG
[2] = molecular target: PCV2-Cap peptide aa 75–89 (Porcine circovirus 2, PCV2b strain SH); assay: as above
[3] = molecular target: PCV2-Cap peptide aa 73–87 (Porcine circovirus 2, PCV2b strain SH); assay: as above
[4] = molecular target: T1, recombinant PCV2 capsid protein (PCV2-Cap) (Porcine circovirus 2, strain of …, UniProt D6R1Z5); assay: Western blot
T1 construct: also called monomeric PCV2-Cap

[5] = molecular target: PCV2-Cap peptide aa 69–83 (Porcine circovirus 2, PCV2b strain SH); assay: ELISA; synthetic 15-mer peptides coated (1 µg/well); mAb-1E7 or mAb-3G4 added; detection with goat anti-mouse IgG

| Binder | binding result [1] | binding result [2] | binding result [3] | binding result [4] | binding result [5] |
| --- | --- | --- | --- | --- | --- |
| mAb-1E7 (antibody, V domains shown) VH: QIQLVQSGPELKKPGETVKISCKASGYIFTNYGMNWVKQAPGKGFKWMGWINTYTGEPTYVDDFKGRFAFSLETSASTVYLQINNLKNEDTATYFCARSLENWGQGTTLTVSS VL: DIVMTQAAFSNPVTLGTSASISCRSSKSLLHSNGITYLYWYLQKPGQSPQLLIYQMSNLASGVPDRFSSSGSGTDFTLRISRVEAEDVGVYYCAQNVELPTFGGGTKLEIK | binds | binds | binds |  |  |
| mAb-3G4 (antibody, V domains shown) VH: QVTLKESGPGILQPSQTLSLTCSFSGFSLSTSGMVVGWIRQPSGKGLEWLAHIWWDDVKRYNPALKSRLTISKDTSNSQVFLKIASVDTADTATYYCARSPFFAYWGQGTLVTISP VL: DIQMTQSPSSLSASLGERVSLTCRASQDIGSNLNWLQKRSDGSIKRLIYATSSLDSGVPKRFSGSRSGSDYSLTISSLESEDFVDYYCLQYATSPYTFGGGTKLEIK |  |  |  | binds | binds |

Source: article PMC10878242 (Journal of Virology, 2024)
